{"source": "patent US20250177557A1", "about": "“METHODS OF PRODUCING MICROBUBBLE DRUG CONJUGATES, VIRAL GENE THERAPY MICROBUBBLE CONJUGATES AND TARGETED MICROBUBBLES” (priority 2022, published 2025)", "molecules": {"B1": {"name": "rhGDNF: Recombinant human GDNF, positive control (protein, UniProt P39905 78-211, looked up)", "Glial cell line-derived …": "SPDKQMAVLPRRERNRQAAAANPENSRGKGRRGQRGKNRGCVLTAIHLNVTDLGLGYETKEELIFRYCSGSCDAAETTYDKILKNLSRNRRLVSDKVGQACCRPIAFDDDLSFLDDNLVYHILRKHSAKRCGCI"}}, "test_system": "human SHSY-5Y cells", "test": "Neuroprotection of differentiated SHSY-5Y cells against parkinsonian neurotoxins (CFDA cell viability)", "type": "cell-based", "conditions": "pre-treatment, rhGDNF 50 ng/ml, CDNF-MDCs 25-250 ng/ml", "method": "Neuroprotection was tested in the well-established neuronal model of human SHSY-5Y cells (Lopes, F. M.,. et al. (2010) Brain Res. 1337, 85-94) treated with parkinsonian neurotoxins. Human SHSY-5Y cells were grown in 24 well dishes and differentiated into neuron-like cells by treatment with 10 μM retinoic acid (RA) for 7 days (FIG. 8A).\nCell viability was quantified by the CFDA assay as described previously (Sandhu, J. K., et al. (2009) Neurobiol. Dis. 33, 405-414.).\nRecombinant human GDNF at 50 ng/ml was used as a positive control."}
{"molecule": "B1", "values": [{"measurement": "Neuroprotection against thapsigargin (cell viability)", "setting": "1.0 μM thapsigargin ~16 h", "result": "protected from cell death"}, {"measurement": "Neuroprotection against MPP+ (cell viability)", "setting": "1.0 mM MPP+ ~16 h", "result": "protected from cell death"}]}
